Assay results: patent US20070099247A1

Target: Streptavidin (UniProt P22629)
Test: flow cytometry of YFP fluorescence on streptavidin coated beads after adding 1 uM biotin

Streptavidin, sequence (P22629 37-163 limits assumed): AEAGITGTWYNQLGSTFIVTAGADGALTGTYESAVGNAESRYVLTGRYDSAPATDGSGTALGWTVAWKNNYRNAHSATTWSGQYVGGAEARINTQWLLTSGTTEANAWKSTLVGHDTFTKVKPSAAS

koff: 0.02 s⁻¹
Substance: Yellow fluorescent protein with streptavidin binding peptide SA-1 inserted after Y145
